Test results published in patent US20170173114A1, “METHODS AND COMPOSITIONS FOR INDUCTION OF UCP1 EXPRESSION” (Joslin Diabetes Center, Inc., priority 2014, published 2017).
“Also recorded” adds a separate entry of the source.

Experiments:
[1] = test system: 3T3-F442A white preadipocytes; assay: 2-deoxy-[3H]glucose uptake in 3T3-F442A white preadipocytes; assay type: cell-based; settings: FGF6 overexpressing vs control and EGF
Procedure: The following glucose uptake assay was used to determine whether FGF6 could impact cellular glucose uptake. Specifically, glucose uptake was monitored in WT-1 brown preadipocytes and 3T3-F442A white preadipocytes in the presence or absence of FGF6. After serum starvation in DMEM/H medium containing 1% of BSA for 2-3 h, cells were washed with HEPES buffer and then incubated with or without 100 nM insulin for 30 min in DMEM/H medium containing 1% of BSA. Glucose transport was determined by the addition of 2-deoxy-[3H]glucose (0.1 mM, 0.5 μCi/mL; PerkinElmer Life and Analytical Science, Waltham, Mass.). After 5 minutes of incubation, the reaction was stopped by ice-cold PBS and cells were washed twice with ice-cold PBS. Cells were then lysed in 0.1% SDS, and glucose uptake was assessed in 4 mL of scintillant using Beckman LS6500 scintillation counter (Beckman Coulter, Indianapolis Ind.). Nonspecific 2-deoxy-[3H]glucose uptake was measured in the presence of cytochalasin B (20 μM) and was subtracted from the total uptake to get specific glucose uptake. Results were expressed as the mean±s.e.m. of the indicated number of experiments. The protein content was determined by the Bradford method.

PTGS2 (COX2) = assay: PTGS2 mRNA / COX2 protein expression in WT-1 brown preadipocytes; assay type: cell-based, murine
Procedure: Total RNA was isolated with QIAzol lysis reagent (Qiagen, Valencia, Calif.) and purified by RNeasy Mini columns (Qiagen) following the manufacture's instructions. cDNA was prepared from total RNA using the Advantage RT-PCR kit (BD Biosciences, Palo Alto, Calif.) according to manufacturer's instructions. Diluted cDNA was used in a PCR reaction with SYBR Green Master Mix (Applied Biosystems, Foster City, Calif.) and primers specifically designed for detection of the gene of interest. PCR reactions were run in duplicate for each sample and quantitated in the ABI Sequence Detection System (Applied Biosystems). Data were expressed as arbitrary units after normalization to levels of expression of internal controls for each sample. Sequences of primers for specific genes are each obtained from the published literature or designed using publically available gene sequence databases. Unless otherwise indicated, gene expression data described in the examples below was obtained using QPCR.
Cells were harvested in lysis buffer (50 mM HEPES, 137 mM NaCl, 1 mM MgCl2, 1 mM CaCl2, 10 mM Na2P2O7, 10 mM NaF, 2 mM EDTA, 10% glycerol, 1% Igepal CA-630, 2 mM vanadate, 10 μg/ml of leupeptin, 10 μg/ml of aprotinin, 2 mM phenylmethylsulfonyl fluoride; pH 7.4). After lysis, lysates were clarified by centrifugation at 12,000×g for 20 min at 4° C., the amount of protein in the supernatants was determined by the Bradford Protein Assay (Bio-Rad Laboratories, Hercules, Calif.). Proteins were directly solubilized in Laemmli sample buffer. Equal amounts of lysates were separated by sodium dodecyl sulfate-polyacrylamide gel electrophoresis and transferred to Immobolin-P membranes. Membranes were blocked overnight at 4° C. and incubated with the indicated antibody for 2 hours at room temperature. Specifically bound primary antibodies were detected with peroxidase-coupled secondary antibody and enhanced chemiluminescence (ECL, Amersham Biosciences, Piscataway, N.J.).
To determine if FGF4, FGF5, FGF6, FGF10, FGF16, FGF17, FGF18 or FGF20 induced either UCP1 mRNA or PTGS2 mRNA expression, murine brown preadipocyte WT-1 cells (Tseng et al., Nat. Cell. Biol. (2005) 7(6):601-611) were grown in growth media (DMEM-high glucose+10% FBS) supplemented with FGF4, FGF5, FGF6, FGF10, FGF16, FGF17, FGF18, FGF20 or buffer (control) in combination with insulin (20 nM) and triidothyronine (T3, 1 nM) for three days. All FGFs were used at a dosage of 200 ng/mL. mRNA was isolated and UCP1 and PTGS2 gene expression levels were evaluated by quantitative reverse transcription polymerase chain reaction (Q-RT-PCR) analysis. All experiments were performed triplicate and the data are presented as mean+/−SEM.
To determine if FGF1 or FGF10 induce UCP1 mRNA expression or PTGS2 mRNA expression, murine brown preadipocyte WT-1 cells (Tseng et al., Nat. Cell. Biol. (2005) 7(6):601-611) were grown in growth media (DMEM-high glucose+10% FBS) supplemented with FGF1, FGF10 or vehicle (control) in combination with insulin (20 nM) and triidothyronine (T3, 1 nM) for three days. FGF1 and FGF10 were used at a dosage of 50 ng/mL, 100 ng/mL or 300 ng/mL. mRNA was isolated and UCP1 and PTGS2 expression levels were evaluated by quantitative reverse transcription polymerase chain reaction (Q-RT-PCR) analysis. All experiments were performed triplicate and the data are presented as mean+/−SEM.
To test the role of specific prostaglandins (PGs) in activating UCP1 expression, WT-1 brown adipocytes were pretreated with PGE2, PGI2 and FGF6 for 24 hours. mRNA expression levels of UCP1, PTGS2, LDHA, PDK1 and PKM2 were then measured.

UCP1 = assay: Marker mRNA expression and culture media acidification in mature brown adipocytes; assay type: cell-based, murine; settings: seven days
Procedure: The effect of FGF6 on murine mature brown adipocytes was also examined. Mature brown adipocytes were treated with FGF6 in growth media (DMEM+10% FBS), a vehicle control (buffer) (“buffer” referred to in FIG. 22), or BMP7 for seven days. Following the treatment, cells were examined for the color of the culture media in combination with oil Red O staining, expression of adipogenic markers, and expression of brown fat markers.
mRNA expression of UCP1, PPARγ, PTGS2, NDST3 and SIRT1 was measured in the mature adipocytes exposed to either the control, BMP7, or FGF6.

[2] = Insulin tolerance test in Chow or high fat diet mice; assay type: in vivo, C57BL6 mice; settings: Chow or HFD mice, 0.5 mg/kg FGF6 s.c. and 1.5 U insulin per kg
Procedure: In addition to testing the impact of FGF6 on glucose tolerance, an insulin tolerance test was also performed using Chow fed and Obese (HFD) mice. Animals were fasted for two hours before receiving an intraperitoneal dose of 1.5 IU of recombinant human insulin (Humalog; Eli Lilly and Company, Indianapolis, Ind.). Blood samples were collected from the tail vein for measurement of blood glucose levels using a glucometer before and 15, 30, and 60 min after injections of FGF6 and the buffer control.

B1: FGF6: fibroblast growth factor 6; recombinant human FGF from R&D Systems, or mouse FGF6 cDNA overexpressed by lentiviral vector (protein)
chain: KRQRRLYCNVGIGFHLQVLPDGRISGTHEENPYSLLEISTVERGVVSLFGVRSALFVAMNSKGRLYATPSFQEECKFRETLLPNNYNAYESDLYQGTYIALSKYGRVKRGSKVSPIMTVTHFLPRI
glucose uptake level in F442A (white) preadipocytes [1]: increased
PTGS2 mRNA expression relative to the control (PTGS2 (COX2); 200 ng/mL with insulin and T3, three days): increased
PTGS2 mRNA expression (PTGS2 (COX2); 50-300 ng/mL, three days): induced
COX2 protein expression, Western blot (PTGS2 (COX2); 50-300 ng/mL, three days, dose-dependent): increased
PTGS2 mRNA expression (PTGS2 (COX2); WT-1, 24 hours, vs vehicle): significantly induced
acidification of cell culture media, mature brown adipocytes (UCP1): no acidification of cell culture media
UCP1 mRNA expression in mature adipocytes (UCP1; vs buffer or BMP7): does not induce
glucose levels in insulin tolerance test (insulin sensitivity) [2]: lower levels of glucose; also recorded: enhanced insulin sensitivity
